Assay results reported in patent US20200024639A1.

Target: HA-NanoLuc-VAMP2 (UniProt P63027)
Assay: cell-based or functional assay

Sequence of UniProt P63027 (P63027 1-116, tags or fused parts left off): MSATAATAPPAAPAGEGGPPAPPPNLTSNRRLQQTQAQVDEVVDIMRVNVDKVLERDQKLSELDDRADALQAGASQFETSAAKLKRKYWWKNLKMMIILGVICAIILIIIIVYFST

botulinum neurotoxin type B (from UniProt P10844 2-1291) (enzyme)
cleavage of the reporter in SiMa cells, immunoblot with total VAMP2 antibody: 10 nM
